Measurements reported in PMC13038408 (Nature Chemical Biology, 2025).

T1: RSVF-multi-3 (de novo design (synthetic))
T1 construct: source: E. coli BL21 (DE3), purified (Ni-NTA, SEC)
T1 chain: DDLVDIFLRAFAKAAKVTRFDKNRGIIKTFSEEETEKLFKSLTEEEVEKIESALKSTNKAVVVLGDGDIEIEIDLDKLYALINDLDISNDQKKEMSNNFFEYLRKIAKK

T2: RSVF-multi-4 (synthetic construct (de novo design))
T2 construct: also called RSVF-multi-4 WT; source: E. coli BL21 (DE3), purified (Ni-NTA, SEC)
T2 chain: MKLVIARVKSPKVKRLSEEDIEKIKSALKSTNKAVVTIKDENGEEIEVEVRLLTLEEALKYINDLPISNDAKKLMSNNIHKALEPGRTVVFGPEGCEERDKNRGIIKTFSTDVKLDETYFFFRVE

T3: RSVFV-1 (synthetic construct (de novo scaffold …))
T3 construct: also called RSVF-V H6; source: E. coli BL21 (DE3), purified (Ni-NTA, SEC)
T3 chain: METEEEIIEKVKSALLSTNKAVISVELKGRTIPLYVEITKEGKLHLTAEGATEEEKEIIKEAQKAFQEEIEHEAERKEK

T4: RSVFV-2 (de novo design (synthetic))
T4 construct: source: E. coli BL21 (DE3), purified (Ni-NTA, SEC)
T4 chain: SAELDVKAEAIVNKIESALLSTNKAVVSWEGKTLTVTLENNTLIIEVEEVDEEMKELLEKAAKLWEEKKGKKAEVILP

T5: RSVFV-3 (de novo design (synthetic))
T5 construct: source: E. coli BL21 (DE3), purified (Ni-NTA, SEC)
T5 chain: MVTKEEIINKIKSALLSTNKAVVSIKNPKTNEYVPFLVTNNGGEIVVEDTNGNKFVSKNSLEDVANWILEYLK

T6: RSVFV-4 (de novo design (synthetic))
T6 construct: source: E. coli BL21 (DE3), purified (Ni-NTA, SEC)
T6 chain: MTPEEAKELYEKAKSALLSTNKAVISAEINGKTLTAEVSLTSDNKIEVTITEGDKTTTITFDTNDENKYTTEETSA


Legend:
Experiment in all cases: SPR
Conditions in all cases: both partners purified
RSVF-multi-3 = target: T1, RSVF-multi-3
RSVF-multi-4 = target: T2, RSVF-multi-4
RSVFV-1 = target: T3, RSVFV-1
RSVFV-2 = target: T4, RSVFV-2
RSVFV-3 = target: T5, RSVFV-3
RSVFV-4 = target: T6, RSVFV-4

Row | Binder | Kd (RSVF-multi-3) | Kd (RSVF-multi-4) | Kd (RSVFV-1) | Kd (RSVFV-2) | Kd (RSVFV-3) | Kd (RSVFV-4)
1 | Motavizumab IgG (antibody, V domains shown, also called site-II-specific antibody) VH: QVTLRESGPALVKPTQTLTLTCTFSGFSLSTAGMSVGWIRQPPGKALEWLADIWWDDKKHYNPSLKDRLTISKDTSKNQVVLKVTNMDPADTATYYCARDMIFNFYFDVWGQGTTVTVSS VL: DIQMTQSPSTLSASVGDRVTITCSASSRVGYMHWYQQKPGKAPKLLIYDTSKLASGVPSRFSGSGSGTEFTLTISSLQPDDFATYYCFQGSGYPFTFGGGTKVEIK | 18 nM | 14 nM |  |  |  | 
2 | RSV90 Fab (Fab, V domains shown, also called hRSV90; site-V-specific antibody) VH: EVQLVESGGGLVQPRRSLRLSCAASGFTFDDYTIHWVRQAPGKGLEWVSGITWNSGYIGYADSVKGRFTISRDNARNSLYLQMNSLRAEDTALYYCVRDAYVSGSDYYYYGLDVWGRGTLVTVSS VL: EIVMTSSPATLSVSPGERVTLFCRASQSVISNLAWYQQKSGQAPRLLIYGASTRATGIPSRFSGSGSGTEFTLTISSLQSEDFAVYFCQQYNNWPLTFGGGTQVNVQ |  |  | 54 nM | 108 nM | 94 nM | 241 nM
